The supplement of paper PMC10567573

B1: SPDEF (parent)
chain: FQELAGKELCAMSEEQFRQRSPLG

Variants of: B1
Experiment: protein stability index of a GFP-peptide fusion (GPS, HEK-293T) (PSI 1-6); higher = more stable
Settings: c terminus: a fixed tail appended
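Further: lentivirally expressed fusions sorted by FACS into six bins by GFP to DsRed ratio, PSI derived from sequencing read proportions per bin multiplied by bin number.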

Going from FQELAGKELCAMSQEQFRQRSPLG to FQELAGKELCAMSREQFRQRSPLG, the protein stability index falls from 2.63 to 2.52.

Going from FQELAGKELCAMSSEQFRQRSPLG to FQELAGKELCAMSTEQFRQRSPLG, the protein stability index falls from 2.3 to 1.89.

Going from FQELAGKELCAMSVEQFRQRSPLG to FQELAGKELCAMSWEQFRQRSPLG, the protein stability index rises from 2.07 to 2.95.

Compared with FQELAGKELCAMSYEQFRQRSPLG, FQELAGKELCAMSEAQFRQRSPLG is higher in protein stability index: 2.49 for the first, 3.05 for the second.

Compared with FQELAGKELCAMSECQFRQRSPLG, FQELAGKELCAMSEDQFRQRSPLG is higher in protein stability index: 2.19 for the first, 2.74 for the second.

First: FQELAGKELCAMSEFQFRQRSPLG
Second: FQELAGKELCAMSEGQFRQRSPLG
The protein stability index of the first is lower: 1.98 for the first, 2.3 for the second.

First: FQELAGKELCAMSEHQFRQRSPLG
Second: FQELAGKELCAMSEIQFRQRSPLG
The protein stability index of the first is lower: 2.01 for the first, 2.04 for the second.

Going from FQELAGKELCAMSEKQFRQRSPLG to FQELAGKELCAMSELQFRQRSPLG, the protein stability index rises from 2.24 to 2.32.

Compared with FQELAGKELCAMSEMQFRQRSPLG, FQELAGKELCAMSENQFRQRSPLG is lower in protein stability index: 2.19 for the first, 2.13 for the second.

First: FQELAGKELCAMSEPQFRQRSPLG
Second: FQELAGKELCAMSEQQFRQRSPLG
The protein stability index of the first is lower: 2.41 for the first, 2.71 for the second.

First: FQELAGKELCAMSERQFRQRSPLG
Second: FQELAGKELCAMSESQFRQRSPLG
The protein stability index of the first is higher: 2.5 for the first, 2.21 for the second.

Compared with FQELAGKELCAMSETQFRQRSPLG, FQELAGKELCAMSEVQFRQRSPLG is lower in protein stability index: 2.38 for the first, 1.93 for the second.

First: FQELAGKELCAMSEWQFRQRSPLG
Second: FQELAGKELCAMSEYQFRQRSPLG
The protein stability index of the first is higher: 2.56 for the first, 2.04 for the second.

First: FQELAGKELCAMSEEAFRQRSPLG
Second: FQELAGKELCAMSEECFRQRSPLG
The protein stability index of the first is higher: 3.12 for the first, 2.86 for the second.

Going from FQELAGKELCAMSEEDFRQRSPLG to FQELAGKELCAMSEEEFRQRSPLG, the protein stability index falls from 3.23 to 3.06.

Compared with FQELAGKELCAMSEEFFRQRSPLG, FQELAGKELCAMSEEGFRQRSPLG is higher in protein stability index: 2.13 for the first, 2.74 for the second.

Going from FQELAGKELCAMSEEHFRQRSPLG to FQELAGKELCAMSEEIFRQRSPLG, the protein stability index rises from 2.43 to 2.49.

First: FQELAGKELCAMSEEKFRQRSPLG
Second: FQELAGKELCAMSEELFRQRSPLG
The protein stability index of the first is higher: 2.28 for the first, 2.2 for the second.

Going from FQELAGKELCAMSEEMFRQRSPLG to FQELAGKELCAMSEENFRQRSPLG, the protein stability index rises from 2.23 to 2.74.

Going from FQELAGKELCAMSEEPFRQRSPLG to FQELAGKELCAMSEERFRQRSPLG, the protein stability index rises from 2.47 to 2.6.

First: FQELAGKELCAMSEESFRQRSPLG
Second: FQELAGKELCAMSEETFRQRSPLG
The protein stability index of the first is lower: 2.56 for the first, 2.65 for the second.

Going from FQELAGKELCAMSEEVFRQRSPLG to FQELAGKELCAMSEEWFRQRSPLG, the protein stability index falls from 2.28 to 1.92.

Compared with FQELAGKELCAMSEEYFRQRSPLG, FQELAGKELCAMSEEQARQRSPLG is higher in protein stability index: 2.16 for the first, 3.37 for the second.

Compared with FQELAGKELCAMSEEQCRQRSPLG, FQELAGKELCAMSEEQDRQRSPLG is higher in protein stability index: 3.14 for the first, 3.85 for the second.

First: FQELAGKELCAMSEEQERQRSPLG
Second: FQELAGKELCAMSEEQGRQRSPLG
The protein stability index of the first is higher: 3.85 for the first, 3.58 for the second.

Compared with FQELAGKELCAMSEEQHRQRSPLG, FQELAGKELCAMSEEQIRQRSPLG is higher in protein stability index: 3.14 for the first, 3.22 for the second.

Going from FQELAGKELCAMSEEQKRQRSPLG to FQELAGKELCAMSEEQLRQRSPLG, the protein stability index falls from 3.25 to 3.14.

First: FQELAGKELCAMSEEQMRQRSPLG
Second: FQELAGKELCAMSEEQNRQRSPLG
The protein stability index of the first is lower: 2.66 for the first, 3.02 for the second.

Compared with FQELAGKELCAMSEEQPRQRSPLG, FQELAGKELCAMSEEQQRQRSPLG is higher in protein stability index: 3.28 for the first, 3.34 for the second.

Going from FQELAGKELCAMSEEQRRQRSPLG to FQELAGKELCAMSEEQSRQRSPLG, the protein stability index rises from 2.97 to 3.14.

Compared with FQELAGKELCAMSEEQTRQRSPLG, FQELAGKELCAMSEEQVRQRSPLG is lower in protein stability index: 3.63 for the first, 3.1 for the second.

Going from FQELAGKELCAMSEEQWRQRSPLG to FQELAGKELCAMSEEQYRQRSPLG, the protein stability index rises from 2.67 to 2.93.

Going from FQELAGKELCAMSEEQFAQRSPLG to FQELAGKELCAMSEEQFCQRSPLG, the protein stability index falls from 2.93 to 2.51.

Compared with FQELAGKELCAMSEEQFDQRSPLG, FQELAGKELCAMSEEQFEQRSPLG is lower in protein stability index: 3.37 for the first, 3.31 for the second.

Going from FQELAGKELCAMSEEQFFQRSPLG to FQELAGKELCAMSEEQFGQRSPLG, the protein stability index rises from 2.21 to 2.9.

First: FQELAGKELCAMSEEQFHQRSPLG
Second: FQELAGKELCAMSEEQFIQRSPLG
The protein stability index of the first is lower: 2.64 for the first, 2.73 for the second.

Going from FQELAGKELCAMSEEQFKQRSPLG to FQELAGKELCAMSEEQFLQRSPLG, the protein stability index rises from 2.46 to 2.76.

First: FQELAGKELCAMSEEQFMQRSPLG
Second: FQELAGKELCAMSEEQFNQRSPLG
The protein stability index of the first is lower: 2.51 for the first, 2.96 for the second.

Going from FQELAGKELCAMSEEQFPQRSPLG to FQELAGKELCAMSEEQFQQRSPLG, the protein stability index falls from 2.92 to 2.81.

Going from FQELAGKELCAMSEEQFSQRSPLG to FQELAGKELCAMSEEQFTQRSPLG, the protein stability index rises from 2.82 to 2.83.

Compared with FQELAGKELCAMSEEQFVQRSPLG, FQELAGKELCAMSEEQFWQRSPLG is lower in protein stability index: 2.8 for the first, 2 for the second.

Compared with FQELAGKELCAMSEEQFYQRSPLG, FQELAGKELCAMSEEQFRARSPLG is higher in protein stability index: 2.29 for the first, 2.67 for the second.

Compared with FQELAGKELCAMSEEQFRCRSPLG, FQELAGKELCAMSEEQFRDRSPLG is higher in protein stability index: 2.67 for the first, 2.87 for the second.

Going from FQELAGKELCAMSEEQFRERSPLG to FQELAGKELCAMSEEQFRFRSPLG, the protein stability index falls from 4.17 to 2.23.

First: FQELAGKELCAMSEEQFRGRSPLG
Second: FQELAGKELCAMSEEQFRHRSPLG
The protein stability index of the first is lower: 2.53 for the first, 2.93 for the second.

Compared with FQELAGKELCAMSEEQFRIRSPLG, FQELAGKELCAMSEEQFRKRSPLG is higher in protein stability index: 2.39 for the first, 2.74 for the second.

Compared with FQELAGKELCAMSEEQFRLRSPLG, FQELAGKELCAMSEEQFRMRSPLG is higher in protein stability index: 2.24 for the first, 2.33 for the second.
